In assay [1] the target is hLTBP1-proTGFβ1 in the cell-based potency assay (human, UniProt P01137 30-390; Q14766 347-1721). The experiment in a line: cell-based or functional assay.
The target of assay [2] is hGARP-proTGFβ1 in the cell-based potency assay (human, UniProt P01137 30-390; Q14392 20-662). The experiment in a line: cell-based or functional assay.
The target in assay [3] is hLTBP3-proTGFβ1 in the cell-based potency assay (human, UniProt P01137 30-390; Q9NS15 44-1303). Kind of assay: cell-based or functional assay.
hLTBP3-proTGFβ1 in the cell-based potency assay, sequence (P01137 30-390 limits assumed, chain 1 of 2): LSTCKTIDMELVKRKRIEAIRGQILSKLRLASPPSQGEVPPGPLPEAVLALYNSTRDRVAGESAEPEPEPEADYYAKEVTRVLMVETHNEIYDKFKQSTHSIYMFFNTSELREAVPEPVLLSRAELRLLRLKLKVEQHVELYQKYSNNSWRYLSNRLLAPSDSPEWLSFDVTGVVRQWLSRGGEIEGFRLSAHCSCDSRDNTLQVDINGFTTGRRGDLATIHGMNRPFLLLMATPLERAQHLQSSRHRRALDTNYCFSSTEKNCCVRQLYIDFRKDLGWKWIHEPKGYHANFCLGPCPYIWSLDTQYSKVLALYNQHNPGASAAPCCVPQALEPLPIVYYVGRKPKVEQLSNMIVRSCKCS
hLTBP3-proTGFβ1 in the cell-based potency assay, sequence (Q9NS15 44-1303 limits assumed, chain 2 of 2): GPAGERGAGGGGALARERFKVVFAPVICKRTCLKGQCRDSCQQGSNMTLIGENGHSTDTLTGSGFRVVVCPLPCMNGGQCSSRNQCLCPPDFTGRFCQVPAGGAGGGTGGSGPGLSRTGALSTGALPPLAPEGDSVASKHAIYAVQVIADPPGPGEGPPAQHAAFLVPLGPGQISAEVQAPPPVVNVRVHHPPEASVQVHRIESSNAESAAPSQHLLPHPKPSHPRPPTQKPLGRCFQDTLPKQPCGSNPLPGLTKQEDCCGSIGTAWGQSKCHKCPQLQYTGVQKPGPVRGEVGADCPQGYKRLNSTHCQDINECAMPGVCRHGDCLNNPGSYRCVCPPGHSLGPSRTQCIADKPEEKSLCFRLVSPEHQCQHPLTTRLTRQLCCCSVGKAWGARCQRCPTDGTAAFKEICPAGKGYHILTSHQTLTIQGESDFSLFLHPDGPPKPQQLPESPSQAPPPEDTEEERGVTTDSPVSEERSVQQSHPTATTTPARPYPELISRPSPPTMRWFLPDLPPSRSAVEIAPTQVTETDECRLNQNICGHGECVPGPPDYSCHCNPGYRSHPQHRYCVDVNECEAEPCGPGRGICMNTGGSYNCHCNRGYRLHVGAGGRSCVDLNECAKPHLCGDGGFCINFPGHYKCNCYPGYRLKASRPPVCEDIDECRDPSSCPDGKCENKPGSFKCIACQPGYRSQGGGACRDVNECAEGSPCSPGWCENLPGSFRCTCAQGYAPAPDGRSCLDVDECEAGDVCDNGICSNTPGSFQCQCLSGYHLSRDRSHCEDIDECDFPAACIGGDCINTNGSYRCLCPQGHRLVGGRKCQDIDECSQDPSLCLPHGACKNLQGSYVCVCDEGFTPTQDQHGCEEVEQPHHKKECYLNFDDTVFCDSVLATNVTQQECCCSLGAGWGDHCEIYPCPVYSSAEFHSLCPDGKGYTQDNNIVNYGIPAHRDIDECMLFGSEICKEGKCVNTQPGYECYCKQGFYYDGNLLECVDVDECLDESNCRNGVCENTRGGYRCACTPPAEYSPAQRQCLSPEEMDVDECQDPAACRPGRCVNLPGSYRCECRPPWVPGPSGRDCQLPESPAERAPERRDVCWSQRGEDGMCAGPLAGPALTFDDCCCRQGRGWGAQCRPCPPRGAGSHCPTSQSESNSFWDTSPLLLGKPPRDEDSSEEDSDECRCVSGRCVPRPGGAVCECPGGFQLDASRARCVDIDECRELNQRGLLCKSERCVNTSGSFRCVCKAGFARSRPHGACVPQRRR
For assay [4], the target named is LTBP:proTGFβ1 (human). The experiment in a line: cell-based or functional assay.
Assay [5] has as its target Human (human). The experiment in a line: cell-based or functional assay.
Assay [6] concerns the target Rat (rat). The experiment in a line: cell-based or functional assay.
In assay [7] the target is T1, Cyno (cynomolgus monkey).
T1 chain: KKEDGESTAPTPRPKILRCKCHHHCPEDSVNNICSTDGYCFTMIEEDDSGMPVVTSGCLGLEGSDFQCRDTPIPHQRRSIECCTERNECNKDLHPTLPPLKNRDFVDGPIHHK
Kind of assay: cell-based or functional assay.

The target of assay [8] is hLRRC33-proTGFβ1 in the cell-based potency assay (human, UniProt P01137 30-390; Q86YC3 19-651). Kind of assay: cell-based or functional assay.
hLRRC33-proTGFβ1 in the cell-based potency assay, sequence (P01137 30-390 limits assumed, chain 1 of 2): as the sequence (P01137 30-390 limits assumed, chain 1 of 2) above
hLRRC33-proTGFβ1 in the cell-based potency assay, sequence (Q86YC3 other isoform, or with tags, fused parts or gaps limits assumed, chain 2 of 2): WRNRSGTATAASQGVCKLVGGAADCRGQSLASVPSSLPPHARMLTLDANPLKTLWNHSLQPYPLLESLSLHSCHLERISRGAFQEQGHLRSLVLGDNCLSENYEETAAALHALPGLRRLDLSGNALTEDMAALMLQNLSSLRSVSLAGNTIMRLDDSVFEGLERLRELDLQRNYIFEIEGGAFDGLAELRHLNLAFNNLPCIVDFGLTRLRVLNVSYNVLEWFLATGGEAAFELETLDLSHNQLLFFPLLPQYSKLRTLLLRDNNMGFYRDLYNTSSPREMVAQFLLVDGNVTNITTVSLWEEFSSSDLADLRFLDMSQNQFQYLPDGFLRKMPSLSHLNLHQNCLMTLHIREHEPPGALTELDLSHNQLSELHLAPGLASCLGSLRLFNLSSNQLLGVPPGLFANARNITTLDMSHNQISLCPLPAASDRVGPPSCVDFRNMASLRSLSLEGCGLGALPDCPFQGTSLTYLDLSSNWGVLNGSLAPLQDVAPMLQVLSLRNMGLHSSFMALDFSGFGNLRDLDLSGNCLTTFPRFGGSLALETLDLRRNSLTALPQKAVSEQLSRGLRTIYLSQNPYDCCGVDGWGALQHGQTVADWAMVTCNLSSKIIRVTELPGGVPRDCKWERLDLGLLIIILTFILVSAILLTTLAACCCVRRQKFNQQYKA
The target in assay [9] is T2, recombinant human LTBP1-proTGFβ1 complex (human, UniProt Q14766 873-1507).
T2 construct: range 873-1507; Purified large latent complex (proTGFβ1 dimer disulfide-linked to one presenting molecule); biotinylated in BLI, MSD-SET and SPR assays; also called hLTBP1-proTGFβ1; hLTBP1
T2 sequence (chain, as listed by the source limits assumed, chain 1 of 2): as the sequence (P01137 30-390 limits assumed, chain 1 of 2) above
T2 sequence (Q14766 873-1507 limits assumed, chain 2 of 2): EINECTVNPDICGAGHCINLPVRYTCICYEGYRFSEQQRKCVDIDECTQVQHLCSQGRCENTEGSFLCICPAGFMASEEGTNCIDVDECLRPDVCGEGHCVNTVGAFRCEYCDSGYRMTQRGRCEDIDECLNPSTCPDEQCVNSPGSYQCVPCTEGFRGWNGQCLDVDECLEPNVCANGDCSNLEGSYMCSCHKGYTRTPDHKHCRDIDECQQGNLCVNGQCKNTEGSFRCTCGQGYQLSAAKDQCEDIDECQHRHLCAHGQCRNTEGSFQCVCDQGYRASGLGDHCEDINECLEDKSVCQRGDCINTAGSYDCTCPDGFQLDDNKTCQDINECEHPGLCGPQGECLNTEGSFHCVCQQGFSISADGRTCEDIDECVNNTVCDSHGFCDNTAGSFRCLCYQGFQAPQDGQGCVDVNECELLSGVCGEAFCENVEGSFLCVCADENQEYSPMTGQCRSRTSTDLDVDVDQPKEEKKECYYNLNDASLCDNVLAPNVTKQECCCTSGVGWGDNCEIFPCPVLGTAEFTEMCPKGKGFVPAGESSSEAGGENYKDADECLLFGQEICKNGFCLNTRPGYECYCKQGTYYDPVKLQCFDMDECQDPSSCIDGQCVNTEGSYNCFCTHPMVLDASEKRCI
The experiment in a line: SPR (Biacore 8K), biotinylated antigen on Biotin CAP chip, Fab 0.62-10 nM, 1:1 fit. (In general: SPR reads the build-up and loss of mass on a sensor chip optically.)

For assay [10], the target named is T3, recombinant human LTBP3-proTGFβ1 complex (human, UniProt Q9NS15 866-1039).
T3 construct: range 866-1039; Purified large latent complex; also called hLTBP3-proTGFβ1; hLTBP3
The assay is described as above.

Assay [11] addresses T4, recombinant human LRRC33-proTGFβ1 complex (human, UniProt P01137 30-390; Q86YC3 19-650).
T4 construct: C-terminally His-tagged LRRC33 ectodomain (sLRRC33); also called hLRRC33-proTGFβ1; hLRRC33
The description is as above.

The target in assay [12] is T5, recombinant human GARP-proTGFβ1 complex (human, UniProt P01137 30-390; Q14392 20-627).
T5 construct: C-terminally His-tagged GARP ectodomain (sGARP) in complex with latent TGFβ1; also called hGARP-proTGFβ1; hGARP
The assay is described as above.

Where a chain is given by its changes, count along the chain named.

hGARP-proTGFβ1 in the cell-based potency assay, sequence (P01137 30-390 limits assumed, chain 1 of 2): as the sequence (P01137 30-390 limits assumed, chain 1 of 2) above
hGARP-proTGFβ1 in the cell-based potency assay, sequence (Q14392 20-662 limits assumed, chain 2 of 2): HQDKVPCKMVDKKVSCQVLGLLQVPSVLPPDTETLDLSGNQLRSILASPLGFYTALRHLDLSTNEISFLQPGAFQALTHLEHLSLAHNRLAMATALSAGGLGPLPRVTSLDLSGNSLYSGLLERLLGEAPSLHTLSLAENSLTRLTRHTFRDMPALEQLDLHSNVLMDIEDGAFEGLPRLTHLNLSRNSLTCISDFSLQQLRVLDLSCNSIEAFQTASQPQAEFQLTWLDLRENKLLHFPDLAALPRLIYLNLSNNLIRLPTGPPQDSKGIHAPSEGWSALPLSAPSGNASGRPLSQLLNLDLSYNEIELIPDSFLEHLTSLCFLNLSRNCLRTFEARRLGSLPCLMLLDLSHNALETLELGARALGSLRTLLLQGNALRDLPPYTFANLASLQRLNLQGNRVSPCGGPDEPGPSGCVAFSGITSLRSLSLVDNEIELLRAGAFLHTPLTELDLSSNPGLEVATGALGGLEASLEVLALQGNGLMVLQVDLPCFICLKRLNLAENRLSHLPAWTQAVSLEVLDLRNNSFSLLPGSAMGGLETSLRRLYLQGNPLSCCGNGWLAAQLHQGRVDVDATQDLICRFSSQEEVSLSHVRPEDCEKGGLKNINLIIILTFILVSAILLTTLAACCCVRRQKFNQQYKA
Rat (rat), sequence (P17246 30-390): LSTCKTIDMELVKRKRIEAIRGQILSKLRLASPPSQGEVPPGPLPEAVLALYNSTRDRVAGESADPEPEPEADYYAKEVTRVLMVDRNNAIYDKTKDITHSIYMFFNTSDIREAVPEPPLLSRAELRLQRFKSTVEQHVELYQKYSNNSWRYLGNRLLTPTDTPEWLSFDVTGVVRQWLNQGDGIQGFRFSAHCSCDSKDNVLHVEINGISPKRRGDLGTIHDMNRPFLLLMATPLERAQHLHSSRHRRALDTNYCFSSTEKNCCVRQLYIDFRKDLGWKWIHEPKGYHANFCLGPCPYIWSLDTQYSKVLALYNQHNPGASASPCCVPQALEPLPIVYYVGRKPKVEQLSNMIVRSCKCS

B1: Ab4 (antibody, V domains shown)
VH: EVQLVESGGGLVQPGGSLRLSCAASGFTFSSYSMNWVRQAPGKGLEWVSYISSSSSTIYYADSVKGRFTISRDNAKNSLYLQMNSLRAEDTAVYYCARGVLDYGDMLDPWGQGTLVTVSS
VL: DIQMTQSPSSLSASVGDRVTITCQASQDITNYLNWYQQKPGKAPKLLIYDASNLETGVPSRFSGSGSGTDFTFTISSLQPEDIATYYCQQADNHPPWTFGGGTKVEIK
In the case of B1, the “IC50, reporter cell assay of TGFβ1 activation” value (“IC50, reporter cell assay” below) came out at 5200 pM in assay [1], 800 pM in assay [2] and 5600 pM in [3].

B2: Ab6 (antibody, V domains shown)
VH: B1 VH with A23T, Y32F, N35D, S53P, S55A, S56D, S78T, D108M
VL: DIQMTQSPSSLSASVGDRVTITCQASQDITNYLNWYQQKPGKAPKLLIYDASNLETGVPSRFSGSGSGTDFTFTISSLQPEDIATYYCQQADNHPPWTFGGGTKVEIKR
On to B2, for which the “IC50 (read off the curve); percent TGFβ activity, LN229 / CAGA12 luciferase reporter co-culture” value in assay [4] is roughly 1000 pM. Besides, the “IC50 (inhibition of latent TGFβ1 activation, LN229 transfectants with CAGA12 reporter cells)” value turned out to be 1070 pM in assay [5], 1110 pM in [6] and 1020 pM in assay [7].

B3: Ab5 (antibody, V domains shown)
VH: B1 VH with Y32F, N35D, S53P, S54D, S55A
VL: B1 VL
As for B3, the “IC50, reporter cell assay” value in assay [1] is 1300 pM; in [2], 100 pM; in assay [8], 600 pM.

B4: Ab6 Fab (Fab, V domains shown)
VH: B1 VH with A23T, Y32F, N35D, S53P, S55A, S56D, S78T, D108M
VL: B1 VL
notes: also called Fab fragment of Ab6
A word on the Kd: it is a measure of binding affinity in units of concentration. A word on the koff: it is the rate constant with which the complex falls apart. The kon is the rate constant with which the complex forms. Turning to B4, the Kd in assay [9] is 124 pM; in [10], 488 pM; in assay [11] it was 145 pM; in [12], 104 pM. In addition, the koff in [9] amounted to 0.000255 s⁻¹; in assay [10] it was 0.000831 s⁻¹; in assay [11], 0.000123 s⁻¹; in assay [12] it was 0.000218 s⁻¹. Further, the kon in [9] is 2.05e+06 M⁻¹ s⁻¹; in assay [10], 1.7e+06 M⁻¹ s⁻¹; in assay [11], 845000 M⁻¹ s⁻¹; in assay [12], 2.1e+06 M⁻¹ s⁻¹.

B5: Ab26 (antibody, V domains shown)
VH: B1 VH with Y32F, N35D, S53P, S54D, S55A, S78T
VL: B1 VL
As to B5, the “IC50, reporter cell assay” value in [1] worked out at 700 pM; in assay [2], 300 pM; in [8], 300 pM; in assay [3] it was 700 pM.

B6: Ab25 (antibody, V domains shown)
VH: B1 VH with S30G, Y32F, N35D, S53P, S54D, S55A
VL: B1 VL
Turning to B6, the “IC50, reporter cell assay” value in assay [1] was 6100 pM; in assay [2], 400 pM; in [8], 700 pM; in [3], 510 pM.

B7: Ab23 (antibody, V domains shown)
VH: B1 VH with Y32F, S53P, S55A, S56D, S78T
VL: B1 VL
For the molecule B7, the “IC50, reporter cell assay” value in assay [1] is 800 pM; in assay [2] it was 300 pM; in [8], 600 pM; in assay [3], 900 pM.

B8: Ab21 (antibody, V domains shown)
VH: B1 VH with Y32F, N35D, S53P, S54D, S55A
VL: B1 VL
As to B8, the “IC50, reporter cell assay” value was 1600 pM in [1], 400 pM in assay [2], 600 pM in assay [8] and 800 pM in assay [3].

B9: Ab33 (antibody, V domains shown)
VH: B1 VH with Y32F, S53P, S55A, S56D, S78T, R98H
VL: B1 VL
Consider B9, for which the “IC50, reporter cell assay” value stood at 1600 pM in assay [1], 200 pM in assay [2], 700 pM in [8] and 1100 pM in [3].

B10: Ab29 (antibody, V domains shown)
VH: B1 VH with G16R, Y32F, S33A, S53P, S54D, S55A, D62G, A97V, G99A
VL: B1 VL
On to B10, for which the “IC50, reporter cell assay” value in assay [1] was found to be 500 pM; in assay [2], 300 pM; in [8] it was 500 pM; in assay [3] it was 800 pM.

(Values after US20230050148A1 (SCHOLAR ROCK, published 2023).)
